Data as given in patent US20130097729A1.

Target: whole pea aphid BBMV proteins
Test: pull-down with whole pea aphid BBMV, anti-GFP western blot, ImageJ band intensities

## GBP3.1(R8A)EGFP (peptide)
  fold increase in BBMV binding efficiency against GBP3.1-EGFP: 5 fold
